Article PMC12327617

Target: myeloperoxidase (MPO), two subunits MPOα and MPOβ (human (endogenous in HL-60))
Test: co-IP; anti-MPO-coated magnetic beads with HL-60 NET extract; H3.1-nucleosomes left after the IP quantified with the H3.1-nucleosome immunoassay, depletion against the unprocessed sample

## H3.1-nucleosomes (nucleosomes containing the histone variant H3.1) of NETs (from UniProt P68431 1-136; P62805 1-103; P0C0S8 1-130; P62807 1-126) (complex)
  percent depletion of H3.1-nucleosomes after IP anti-MPO: 30%
